Entries after “also recorded” stand apart in the source; their conditions may differ. Primed or numbered codes have the meaning given here. Ends that are not written are not given here. * marks the point of attachment. FITC = O=C1OC2(c3ccc(O)cc3Oc3cc(O)ccc32)c2ccc(NC(=S)*)cc21; FITC′ = fluorescein isothiocyanate label
Key:
[1] = molecular target: T1, human serum albumin (HSA) (Homo sapiens, UniProt P02768); test: CPBA, detecting HSA; format: binding; conditions: FIG. 4
T1 construct: purchased Sigma-Aldrich A3782
Description: (§1) The stock solutions of HSA, ovalbumin, and BGG were prepared as 125 μg/ml in HBS buffer (10 mM Hepes-pH 7.0, and 0.15 M NaCl). Aliquots of 30 μl of each protein placed in microplate wells were 2-fold serial diluted in HBS buffer. After an aliquot of 30 μl of freshly prepared reagent-A (6 μM FITC-RD18/FITC-KY15, 100 mM Hepes-pH 7.5, and 2 mM EDTA) was added to each well, the microplate was incubated at 37° C. for 30 minutes. An aliquot of 60 μl of reagent B (0.5 M Hepes-pH 8.0, and 2 mM EDTA) was then added to each well to adjust pH to 8.0 for optimal fluorescence detection. To remove all the free fluorescent peptides, MD-Charcoal suspension (200 μl per well) was added and incubated at room temperature for 5 minutes. […] Background level of fluorescence intensities was measured by replacing protein samples with HBS buffer. The binding capacities of antigens for the fluorescent peptide probes were expressed as net fluorescence intensity per well. All experiments were performed at least in triplicates for each datum point and the data were presented as means±SD.

ovalbumin = molecular target: T2, ovalbumin (Gallus gallus, UniProt P01012); test: CPBA, control protein ovalbumin; format: binding, chicken; conditions: FIG. 4
T2 construct: ovalbumin (#A5503; from chicken egg white; 99% in purity); purchased Sigma-Aldrich A5503; host or cells: chicken egg white
T2 sequence (P01012 1-386): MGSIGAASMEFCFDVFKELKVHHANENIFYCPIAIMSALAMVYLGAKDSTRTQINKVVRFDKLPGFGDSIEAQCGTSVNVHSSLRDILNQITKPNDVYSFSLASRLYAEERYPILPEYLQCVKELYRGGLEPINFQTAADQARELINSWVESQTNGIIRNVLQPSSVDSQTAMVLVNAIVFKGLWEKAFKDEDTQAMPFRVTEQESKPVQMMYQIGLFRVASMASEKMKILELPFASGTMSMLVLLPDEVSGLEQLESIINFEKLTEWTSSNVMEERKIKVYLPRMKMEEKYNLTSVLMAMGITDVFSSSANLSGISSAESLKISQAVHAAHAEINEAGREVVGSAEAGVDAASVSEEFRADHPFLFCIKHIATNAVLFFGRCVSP
Description: as §1

[2] = system: bovine gamma globulin (BGG); test: CPBA, control protein bovine gamma globulin; format: binding; conditions: FIG. 4
Description: as §1

anti-KY15 antibody = test: Charcoal-sorbent peptide binding assay (CPBA), detecting anti-KY15 antibody; conditions: FIG. 2B, anti-KY15 rabbit antiserum
Description: (§2) Rabbit sera (30 μl/well) in microplate were 2-fold serially diluted in PBS buffer (137 mM NaCl, 2.7 mM KCl, 10 mM Na2HPO4, 2 mM KH2PO4, pH 7.4). After an aliquot of 30 μl of freshly prepared reagent-A (6 μM FITC-KY15, 100 mM Hepes-pH 7.5, and 2 mM EDTA) was added to each well, the microplate was incubated at 37° C. for 50 minutes. An aliquot of 60 μl of reagent B (0.5 M Hepes-pH 8.0, and 2 mM EDTA) was then added to each well to adjust pH to 8.0 for optimal fluorescence detection. To remove all the free fluorescent peptides, MD-Charcoal suspension (200 μl per well) was added, and the mixture was incubated at room temperature for 5 minutes. […] The binding capacity of antiserum for the fluorescent peptide probe was expressed as fluorescence intensity per well. All experiments were performed in triplicates for each datum point and the data were presented as means±SD.

anti-FF15 antiserum = test: CPBA, control serum anti-FF15 antiserum; format: binding, rabbit; conditions: FIG. 2B
Description: as §2

[3] = CPBA, control non-immune rabbit serum; format: binding; conditions: FIG. 2B
Description: as §2

[4] = Capturing capacity and rate of MD-Charcoal for FITC-labeled molecules; conditions: for Remaining fluorescence intensities: 3 μM in 60 μl, Ex485/Em535, Gain 35, means±SD (n=3)
Description: Aliquots of FITC-labeled molecules (3 μM in 60 μl) mixed with equal volume of reagent B (2 mM EDTA, 0.5 M Hepes-pH 8.0) were treated with MD-Charcoal (200 μl/well) at room temperature for 1, 5, or 10 minutes.
Data were analyzed by one-way ANOVA and Tukey-HSD multiple range test, and presented as means±SD (n=3). Different successive superscript represents significant difference at p<0.05. The background value from empty well served as blank.

| Binding of peptide probe with HSA [1] | Specificity for albumin compared to control proteins, ovalbumin and bovine gamma globulin [1] | Interaction of ovalbumin with peptide probe (ovalbumin) | Substance | Interaction of bovine gamma globulin with peptide probe [2] | Binding of peptide probe with anti-KY15 antibody (anti-KY15 antibody) | Affinity of anti-FF15 antiserum for the peptide probe (anti-FF15 antiserum) | Affinity of non-immune rabbit serum for the peptide probe [3] | Remaining fluorescence intensities (% of No Treatment) ([4]; MD-Charcoal treatment 1 min) | Remaining fluorescence intensities ([4]; MD-Charcoal treatment 1 min) | Remaining fluorescence intensities (% of No Treatment) ([4]; MD-Charcoal treatment 5 min) | Remaining fluorescence intensities ([4]; MD-Charcoal treatment 5 min) | Remaining fluorescence intensities (% of No Treatment) ([4]; MD-Charcoal treatment 10 min) | Remaining fluorescence intensities ([4]; MD-Charcoal treatment 10 min) |
| --- | --- | --- | --- | --- | --- | --- | --- | --- | --- | --- | --- | --- | --- |
| linearly dose-dependent | highly specific | did not interact | FITC-RD18: N-terminal FITC-labeled peptide RD18, amino acid sequence RLIEDICLPRWGCLWEDD; albumin-specific peptide probe ({FITC′}-RLIEDICLPRWGCLWEDD; cysteine pairing not given here) | did not interact |  |  |  |  |  |  |  |  |  |
| did not have affinity |  |  | FITC-KY15: N-terminal FITC-labeled peptide KY15, amino acid sequence KSVGRDEREDITYTY; peptide probe for anti-KY15 antibody ({FITC}-KSVGRDEREDITYTY) |  | specific binding; also recorded: can be detected | did not show affinity | did not show affinity | (0.6%) | 1,320 ± 410^2b | (0.5%) | 1,037 ± 33^2b | (0.4%) | 943 ± 29^2b |

— patent US8133683B2, “Methods for detecting biomolecules in a sample” (Taipei Medical University, priority 2009, dated 2012)
